Experiment: soluble on expression in E. coli; label from the status in PepcDB or PDB records

Row | Sequence | soluble on expression in E. coli
1 | MGSSHHHHHHSSGLVPRGSHMKKNSLALSLTADQMVSALLDAEPPILYSEYDPTRPFSEASMMGLLTNLADRELVHMINWAKRVPGFVDLTLHDQVHLLECAWLEILMIGLVWRSMEHPVKLLFAPNLLLDRNQGKCVEGMVEIFDMLLATSSRFRMMNLQGEEFVCLKSIILLNSGVYTFLSSTLKSLEEKDHIHRVLDKITDTLIHLMAKAGLTLQQQHQRLAQLLLILSHIRHMSNKGMEHLYSMKCKNVVPLYDLLLEMLDAHRLHAP | not soluble
2 | MAHHHHHHMKINLSFNKNKENKNRNKNGDTDIDNDTRNNKSYKENNPMTRNKIETIFSMSDDEETINYENTHNKIIQQKKENQLNDKIKEYIKEHEEPALTTHEKKEDKKERIDEKNNKKKIQYLGYKSNELTKLNNPKTDDSYDYPFEEKEIYDNLDEKERKKKTIEHNDKDGHEYYKKDHKNHKKYTRSHENDNEVNAYNKDCDVRNKTIDKKTYMKKYDKNIQDYEKKKKKSENSDDDVNRSYLCIDDIFKKKENIDGKKKSKYMEALINSAKRRELEKEFLIQKKQKIDTEKEEKVFVTSAYKKKLMDRELIKKDMDLEVEEKKVDKSSNYNLNLFLKNINAPSNYNRYNRR | soluble
3 | MKLRHLPLIAAIGLFSTVTLAAGYTGPGATPTTTTVKAALEAADDTPVVLQGTIVKRIKGDIYEFRDATGSMKVEIDDEDFPPMEINDKTRVKLTGEVDRDLVGREIDVEFVEVIK | not soluble
4 | MGSDKIHHHHHHMENLGDRLEVVAELSLAPGNITLTPDGRLFLSLHQFYQPEMQVAELTQDGLIPFPPQSGNAIITFDTVLGIKSDGNGIVWMLDNGNQSKSVPKLVAWDTLNNQLSRVIYLPPPITLSNSFVNDLAVDLIHNFVYISDPAPDDKAALIRVDLQTGLAARVLQGYPGIAPEDIDLVIDGVPVQIGQPDGTVIRPHLGVNGIVLDAENEWLYLSPMHSTSMYRIKSADLSNLQLTDAELGSKIERYSEKPICDGISIDKDHNIYVGDLAHSAIGVITSADRAYKLLVTDEKLSWTDSFNFGSDGYLYFDCNQLHHSAPLNAGENISAPPYYIFRLKPLAAGIVGR | not soluble
5 | MPPKIAEVIQHDVCAACGACEAVCPIGAVTVKKAAEIRDPNDLSLYEKGAAFQVCEGCLTCSRICPVVDGFIENELLNVRKFFGAKSKDNAGSQDGGVTSGILKALFNKGEIDCAVGITRNENWEPEVVLLTSAEDVERTRGTKYTSDPVVAALREAFEKYDRIAVVGVPCQAHAARLIRENVNEKIVLIIGLLCMESFHHDVMLDKIIPEIMKVNVRDIVKMEFTKGKFWVYTKDGEVHSVPIKDIAKYARNPCHHCCDYTSVFADISVGSVGAPDGWNSVFIRTEIGEKYFDMVRDEMEIMEDPKPGLELVGKLIEMKRKGNAEHFQEVCKEFSFETGIRSETVLEHHHHHH | soluble
6 | MSLSDPKFIHLRIHSDFSMVDGLSKVPPLVKKVAAMGMPAMALTDFTNLCGLVKFYSTAHNCGVKPIIGADFTLQSEEFGDELTKLTLLAKNNVGYKNLTLLISKAYLRGHVQHQPVIDKAWLVEHAEGLIVLSGGKSGEVGRALLKGNQQQVERCIEFYQTHFADHFYLELIRTGRADEESYLHFALDVAEQYDLPVVATNEVVFITEGHHHHHH | not soluble
7 | MGSDKIHHHHHHMNTHKHARLTFLRRLEMVQQLIAHQVCVPEAARAYGVTAPTVRKWLGRFLAQGQAGLADASSRPTVSPRAIAPAKALAIVELRRKRLTQARIAQALGVSASTVSRVLARAGLSHLADLEPAEPVVRYEHQAPGDLLHIDIKKLGRIQRPGHRVTGNRRDTVEGAGWDFVFVAIDDHARVAFTDIHPDERFPSAVQFLKDAVAYYQRLGVTIQRLLTDNGSAFRSRAFAALCHELGIKHRFTRPYRPQTNGKAERFIQSALREWAYAHTYQNSQHRADAMKSWLHHYNWHRPHQGIGRAVPISRLNLDEYNLLTVHS | not soluble
8 | MNGKRPAEPGPARVGKKGKKEVMAEFSDAVTEETLKKQVAEAWSRRTPFSHEVIVMDMDPFLHCVIPNFIQSQDFLEGLQKELMNLDFHEKYNDLYKFQQSDDLKKRREPHISTLRKILFEDFRSWLSDISKIDLESTIDMSCAKYEFTDALLCHDDELEGRRIAFILYLVPPWDRSMGGTLDLYSIDEHFQPKQIVKSLIPSWNKLVFFEVSPVSFHQVSEVLSEEKSRLSISGWFHGPSLTRPPNYFEPPIPRSPHIPQDHEILYDWINPTYLDMDYQVQIQEEFEESSEILLKEFLKPEKFTKVCEALEHGHVEWSSRGPPNKRFYEKAEESKLPEILKECMKLFRSEALFLLLSNFTGLKLHFLAPSEEDEMNDKKEAETTDITEEGTSHSPPEPENNQMAISNNSQQSNEQTDPEPEENETKKESSVPMCQGELRHWKTGHYTLIHDHSKAEFALDLILYCGCEGWEPEYGGFTSYIAKGEDEELLTVNPESNSLALVYRDRETLKFVKHINHRSLEQKKTFPNRTGFWDFSFIYYE | not soluble
9 | SAGTQLFRFREEPGPGGNRAVLEVRVPQVLHVQYGMYVWPCAVVLAQYLWFHRRSLPGKAVLEVGAGVSLPGILAAKCGAKVILSDSSEFPHCLDICRQSCQMNNLPQVEVVGLTWGHISKDILSLPPQDIILGSDVFFEPEDFESILATVYFLMQKNPKVQFWSTYQVRSADWSLEGLLYKWDMKCVHIPLESFDADKEDIAESTLPGRHTVEMLIISFAKDSF | soluble
10 | MAPTLAEAEKFLRNSKIDKIVLEKLAEILVTTMDDWNLIADQKVAESVWVVLTEAGRSGNLSENLGDGDVAKQLKSVFEKIRLRLQAQLGTIQWKNDELVDYDVTISKNNKSSLHADHTFQRVVLTLKVIPAGKMDVEALVVDFDEAQLNDFIWKLLEAKAMMDRIQKRVESR | not soluble
11 | MSLVRNSSRLLRSQLKRVQSVPVALYHENVVEHYENPRNVGSLDKKDVTVGTGLVGAPACGDVMKLQIKVDENGKIVDAKFKTFGCGSAIASSSLATEWVKGKSIDEAGKLKNTDIAKELRLPPVKLHCSMLAEDAIKAALADYKVKQQKKVAN | not soluble
12 | MAHHHHHHMSYPYYTEFFVRFPKFKEREESERTVDPRIELEKKCQAKCVRPVNEYQSCVSRVQAKPEMKGNCLGQHEEMYMCIDHCVAKDLFNYLV | not soluble
13 | MQFQIGAQGDIADMLTMCNNFPGFEAPMRYMIENSHDVVTVFDGSPAVIVLDELVKADESSYLPFKMKKSYKKVDEIAAKMASEEIHFTIHLSSHSQKNVIQIFQSAYSDGYTEEDKKGKIPEGGRVKCAGTETGARSNVKCEEVAKEVNEYIDSNKDKFGDLKVESLGKADSFMKQKPRRNLFIRVPPLE | not soluble
14 | MPITPPLNIISPKLYPNEQWNESEALGAITWLWYQSPTHRQVPIVEMMTYILPVLKNGQFALFCKGTQPIGYISWAYFDEVAQAHYLESDRHLRDNSDWNCGDNIWLIQWFAPLGHSHQMRSAVRQLFPSTTVRALYHKGSDKGLRILTFKT | not soluble
15 | MSAKMDEQALLALLRELAIDSQRVEHPAIASIEEYYAQGIELPDQGIKNLFLRNRKGTRHYLVLLDERKEADLPGIAEQIGESRLSFASVERLREYLGVELGCVTPFALVNDPQHRVEVLLDDAIRQDQLLGFHPLVNTATECIRYADLLAFLAHTGHEPRLIRA | not soluble
16 | MGSDKIHHHHHHMSDSKWKYNIIYNMEIEVLTGLHIGGSNEELKIGGTDSPVITTKYLINNVEPCDLPYIPGSSIKGKIRSLLENVDYKGKNGDDIVSKMFGYYPNAGEGIKRLTRLIIRDAFLDDGHIKSAEDARNVIEIKSENKIDPIESKATPRFIERVRRGTKFKGKIILSIYEGDNEEEMIKCLKTGISLLEDSYLGGNGTRGYGSVKITLGEPIKKGIDKYEENIKDNTSNGSEN | not soluble
17 | MRQALPLVTRQGDRIAIVSGLRTPFARQATAFHGIPAVDLGKMVVGELLARSEIPADAIEQLVFGQVVQMPEAPNIAREIVLGTGMNVHTDAYSVSRACATSFQAVANVAESLMAGTIRAGIAGGADSSSVLPIGVSKALARVLVDVNKARTTRQRLTLFSRLRLRDLLPVPPAVAEYSTGLRMGDTAEQMAKTYGITREQQDALAHRSHQRAAQAWAEGKLAEEVMTTYVPPYKNPFAEDNNIRGASTLADYAKLRPAFDRKHGSVTAANSTPLTDGAAAVILMTESRAKELGLRPLGYLRTYAFTAIDVWQDMLLGPAWSTPLALERAGLTMADLTLFDMHEAFAAQTLANLQLLGSERFAREVLGCAQATGEVDDAKFNVLGGSIAYGHPFAATGARMITQTLHELRRRGGGFGLVTACAAGGLGAAMVLEAE | not soluble
18 | MGSDKIHHHHHHMETIETVQRFLEHMAWYATPVPASAISFLAAGEYNENWRIRHEGRDEVLRVNHGSQLRFADQIGYEYAVLRAVHPSGVTPRALRVKSRPRHLSGGALLMEYLPGRPLDYRTDLEAAAHTFAAVHSVVVPRGCPLLRQPDPVADIAADGLRLIHRFPDHPRTDVRDALLRYHERVVRLGEDTRALFEGERQVIANTEVNSGNFLVHDGVARLVDWEKAVVTPRYQDLGHFLAPTTTLWKTDTVLDEADRRRFLAAYRDALTRLAGRETVADCHFDTTDTAEGVTHEAAFHTTAPDAPGGQPHGDMAPDVPDLDALAVRTDVLVRAVLLRGLAWCYMAWQEYATDRRPLAHPDTLRTIERYLAEVSWFLR | not soluble
19 | MTFAEYFKNWYIFYKKPKVSKVTLNRYQYTYNVINEYFGNKLLKDITRANYQKFIVKYGQNHSPNTMKMINNCIKACVKNAVYDEEIKKDFTYNIELISNRDNVVQLEHHHHHH | not soluble
20 | SSLRLPSAAELSGQWVLSGAEQHCDIRLNTDVLDGTTWKLAGDTACLQKLLPEAPVGWRPTPDGLTLTQADGSAVAFFSRNRDRYEHKLVDGSVRTLKKKA | soluble
21 | MTRIAIVGAGPAGLSLAYFLKGSRKVEATVYESMPEPGLKPCAWGLITGIENIIPIPNETIISEIRGFRIYLDNKLVFDIRTDNKLGYIIDKPLFLKRLSQEVNVEFNSKVVKKDDKYYINDKSLDHDKVIFATGHYSVSKSMSIPAIQYITDYEIDKEVVEFYFYSGFLGYAWVFPDREGSKIGIGGYAEVPELKERLKQILKGRIRTFHGARVTDYGVIEDRLDGNYTGEALGTVYAITGEGIRPSIISSKILADSILNRKDFKKEFKKSKLYWSLNWHAKIIKMTKENDPGTARLSKALLNNDPQLILKFAIGEFNRVDLIKIFGRSLILEHHHHHH | soluble
22 | MSLILVTGHRGFIGSHIYSYFNGNSEVYGFDIGDKLEDRRYDVIIHMAARGLIRKSIEFPYDYFQDDLSLVVRFLELARKNDSVFIFPSSGSTAEPTNPYSLAKKNAEEWIRLYGKLYGLKYYILRFFNIYGDGAKKGAVYLFTKAALSGEEAIVYGDGSHIRDFLYVGDVPITIERILNEKYRTGEYEVGSGKGTSVNDLISLIEKVTGKKIRTRHEDYIVPEASELVAKNTIVKNPTPLEVGVERVMEFILKDNEGHHHHHH | soluble

— the DeepSol protein solubility set
